{
  "source": "patent US20260174888A1",
  "about": "(ARARIS BIOTECH, published 2026)",
  "binders": {"B1": {"name": "ARA-20-RKAA-PABC-MMAE (antibody, human IgG1, kappa, V domains shown)", "VH": "EVQLVESGGGVVQPGRSLRLSCSASGFDFTTYWMSWVRQAPGKGLEWIGEIHPDSSTINYAPSLKDRFTISRDNAKNTLFLQMDSLRPEDTGVYFCASLYFGFPWFAYWGQGTPVTVSS", "VL": "DIQLTQSPSSLSASVGDRVTITCKASQDVGTSVAWYQQKPGKAPKLLIYWTSTRHTGVPSRFSGSGSGTDFTFTISSLQPEDIATYYCQQYSLYRSFGQGTKVEIKR", "modifications": "linker-payload RKAA-PABC-MMAE (FIG. 6) conjugated by MTG to the native, glycosylated antibody; conjugated residue not stated in the example"}, "B2": {"name": "ARA-20-ARK-PABC-MMAE (antibody, human IgG1, kappa, V domains shown)", "VH": "EVQLVESGGGVVQPGRSLRLSCSASGFDFTTYWMSWVRQAPGKGLEWIGEIHPDSSTINYAPSLKDRFTISRDNAKNTLFLQMDSLRPEDTGVYFCASLYFGFPWFAYWGQGTPVTVSS", "VL": "DIQLTQSPSSLSASVGDRVTITCKASQDVGTSVAWYQQKPGKAPKLLIYWTSTRHTGVPSRFSGSGSGTDFTFTISSLQPEDIATYYCQQYSLYRSFGQGTKVEIKR", "modifications": "linker-payload ARK-PABC-MMAE conjugated by MTG to the native, glycosylated antibody; conjugated residue not stated in the example"}, "B3": {"name": "ARA-20-FA-PEG24-RKAA-PABC-MMAE (antibody, human IgG1, kappa, V domains shown)", "VH": "EVQLVESGGGVVQPGRSLRLSCSASGFDFTTYWMSWVRQAPGKGLEWIGEIHPDSSTINYAPSLKDRFTISRDNAKNTLFLQMDSLRPEDTGVYFCASLYFGFPWFAYWGQGTPVTVSS", "VL": "DIQLTQSPSSLSASVGDRVTITCKASQDVGTSVAWYQQKPGKAPKLLIYWTSTRHTGVPSRFSGSGSGTDFTFTISSLQPEDIATYYCQQYSLYRSFGQGTKVEIKR", "modifications": "linker-payload FA-PEG24-RKAA-PABC-MMAE (FIG. 3) conjugated by MTG to the native, glycosylated antibody; conjugated residue not stated in the example"}, "B4": {"name": "ARA-20-FA-PEG12-RKAA-PABC-MMAE (antibody, human IgG1, kappa, V domains shown)", "VH": "EVQLVESGGGVVQPGRSLRLSCSASGFDFTTYWMSWVRQAPGKGLEWIGEIHPDSSTINYAPSLKDRFTISRDNAKNTLFLQMDSLRPEDTGVYFCASLYFGFPWFAYWGQGTPVTVSS", "VL": "DIQLTQSPSSLSASVGDRVTITCKASQDVGTSVAWYQQKPGKAPKLLIYWTSTRHTGVPSRFSGSGSGTDFTFTISSLQPEDIATYYCQQYSLYRSFGQGTKVEIKR", "modifications": "linker-payload FA-PEG12-RKAA-PABC-MMAE (FIG. 4) conjugated by MTG to the native, glycosylated antibody; conjugated residue not stated in the example"}, "B5": {"name": "ARA-20-FA-PEG12-ARK-PABC-MMAE (antibody, human IgG1, kappa, V domains shown)", "VH": "EVQLVESGGGVVQPGRSLRLSCSASGFDFTTYWMSWVRQAPGKGLEWIGEIHPDSSTINYAPSLKDRFTISRDNAKNTLFLQMDSLRPEDTGVYFCASLYFGFPWFAYWGQGTPVTVSS", "VL": "DIQLTQSPSSLSASVGDRVTITCKASQDVGTSVAWYQQKPGKAPKLLIYWTSTRHTGVPSRFSGSGSGTDFTFTISSLQPEDIATYYCQQYSLYRSFGQGTKVEIKR", "modifications": "linker-payload FA-PEG12-ARK-PABC-MMAE (FIG. 5) conjugated by MTG to the native, glycosylated antibody; conjugated residue not stated in the example"}},
  "key": {"CEACAM-5 [1]": {"target": "T1, CEACAM-5 (UniProt P06731 35-702, limits assumed)", "T1 sequence (looked up)": "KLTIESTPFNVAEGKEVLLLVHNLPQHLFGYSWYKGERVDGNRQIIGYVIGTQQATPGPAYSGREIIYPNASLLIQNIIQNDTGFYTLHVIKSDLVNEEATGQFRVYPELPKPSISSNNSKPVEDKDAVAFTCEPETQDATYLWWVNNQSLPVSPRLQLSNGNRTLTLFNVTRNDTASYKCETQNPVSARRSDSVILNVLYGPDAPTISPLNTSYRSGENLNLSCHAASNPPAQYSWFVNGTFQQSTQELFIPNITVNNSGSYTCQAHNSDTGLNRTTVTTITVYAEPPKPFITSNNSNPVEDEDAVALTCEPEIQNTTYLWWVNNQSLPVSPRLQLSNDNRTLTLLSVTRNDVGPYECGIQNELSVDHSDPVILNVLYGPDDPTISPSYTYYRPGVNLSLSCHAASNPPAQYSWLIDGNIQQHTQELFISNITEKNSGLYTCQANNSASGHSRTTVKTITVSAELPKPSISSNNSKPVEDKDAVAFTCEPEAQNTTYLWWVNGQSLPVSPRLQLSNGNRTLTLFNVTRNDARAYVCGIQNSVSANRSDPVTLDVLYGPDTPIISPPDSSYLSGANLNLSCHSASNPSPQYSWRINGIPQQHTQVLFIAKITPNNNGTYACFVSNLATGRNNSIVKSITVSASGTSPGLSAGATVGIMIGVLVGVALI", "assay": "cell-based or functional assay"}, "CEACAM-5 [2]": {"target": "T1, CEACAM-5", "assay": "cell-based or functional assay", "remark": "listed apart in the source"}},
  "note": "Like-named read-outs stand apart in the source and are kept apart here.",
  "data": [
    {"binder": "B1", "values": [
      {"measurement": "IC50 (nM), cytotoxicity on NCI-H2110 cells, CellTiterGlo viability, 96 hours", "setting": "CEACAM-5 [1]", "value": 30.2, "unit": "nM"}
    ]},
    {"binder": "B2", "values": [
      {"measurement": "IC50 (nM), cytotoxicity on NCI-H2110 cells, CellTiterGlo viability, 96 hours", "setting": "CEACAM-5 [2]", "value": 58, "unit": "nM"}
    ]},
    {"binder": "B3", "values": [
      {"measurement": "IC50 (nM), cytotoxicity on NCI-H2110 cells, CellTiterGlo viability, 96 hours", "setting": "CEACAM-5 [1]", "value": 5.93, "unit": "nM"}
    ]},
    {"binder": "B4", "values": [
      {"measurement": "IC50 (nM), cytotoxicity on NCI-H2110 cells, CellTiterGlo viability, 96 hours", "setting": "CEACAM-5 [1]", "value": 4.68, "unit": "nM"}
    ]},
    {"binder": "B5", "values": [
      {"measurement": "IC50 (nM), cytotoxicity on NCI-H2110 cells, CellTiterGlo viability, 96 hours", "setting": "CEACAM-5 [2]", "value": 27.8, "unit": "nM"}
    ]}
  ]
}
